From US20030036699A1, “Methods and systems which use annexin for bioprofiling body lumen” (IMETRx, Inc., priority 2001, published 2003)
“And” between values parts separate entries of the source, which are not always exact repeats. Equal entries are not always repeated.

System: injured iliac vessel (arterial lesions)
Assay: Tracer uptake by autoradiography of harvested aorta/iliac in balloon-injured, cholesterol-fed rabbits
Assay type: in vivo, rabbit
Details: for Figure of Merit (FOM): FOM=3(AUR)(PUR)(PBR); for Peak Uptake Ratio (PUR): peak lesion uptake vs uninjured zone, autoradiograph after single IV tracer dose; for Average Uptake Ratio (AUR): ratio of uptake in injured vs uninjured iliac vessel, autoradiograph about 2.5 h after single IV tracer dose
Description: Twenty-one adult male rabbits (weighing 3-4 kg at the time of tracer administration) were each were fed a high cholesterol, high fat diet for one week. Following one week of feeding, the rabbits were heparinized, anesthetized with ketamine HCI (25 mg/kg, IM) and medetomidine (0.5 mg/kg, IM), and underwent a left carotid arteriotomy. A 3-4F Fogarty catheter was advanced through the arteriotomy under fluoroscopic guidance into the right iliac artery. The Fogarty balloon was inflated with 0.4-0.75 ml of contrast media (to assist with localization by fluoroscopy) and withdrawn to the level of diaphragm. The balloon was deflated, the catheter returned to the distal iliac under fluoroscopic guidance, and the process repeated. There were six repetitions of the procedure. The neck incision was closed, and the animals received Baytril (5 mg IM) for 3 days following surgery to minimize infection. The animals were allowed to recover for four additional weeks while the high fat/high cholesterol diet was continued. The rabbits were divided into seven groups of […] each. On the day of study, a blood sample was drawn to measure lipids (cholesterol), and two groups of three animals received a single tracer dose intravenously via a marginal ear vein. The first group of three rabbits received annexin V-^99mTc.
Two hours after the radiopharmaceutical was administered, the animals were injected with Evans blue to identify the areas of injury an re-endothelialized aorta and iliac vessel. Thirty minutes later, the animals were anesthetized with sodium pentothal (35 mg/kg, IV) and, a thoracotomy and a midline laporotomy incision were performed. The left ventricle was identified, a trocar placed in the chamber, and a cannula placed in the abdominal aorta. The rabbit was partially exsanguinated, followed by infusion of 100 mL lactated Ringer's solution, and subsequently perfused with 0.4% paraformaldehyde (PFA) for about 5 min at about 100 mmHg pressure.
Following euthanasia, the aorta was harvested, photographed (SONY Mavica) and autoradiographed (Molecular Dynamics). An aliquot of blood and an aliquot of the injected dose were included on the plate to permit quantification. The autoradiographs were compared to the Evans Blue stained specimen to determine where the tracer had localized with reference to the injury. A ratio between uptake in the injured and uninjured iliac vessel was determined (average uptake ratio) using analysis option of ‘Image Quest^1.’ Additional ratios were created using the average counts in regions of interest placed over the area with peak uptake on the autoradiograph with each agent, and a ratio of peak uptake to the activity in an aliquot blood were determined.
To simplify the process of integrating the information, a Figure of Merit was calculated, using the formula: […]

Molecule | Figure of Merit (FOM) | activity in injured iliac vessel relative to uninjured site (animals 1 and 3) [fold] | Peak Uptake Ratio (PUR) | Average Uptake Ratio (AUR) | localization of tracer on the autoradiograph relative to lesion sites (autoradiograph compared with Evans Blue stained specimen) | Peak to Blood Ratio (PBR) (peak lesion uptake vs activity in an aliquot of blood)
albumin-^125I [reference compound] | 14 | 3 | 5.1 and 5.2 | 3.0 | – | –
annexin V-^99mTc (protein, UniProt P08758 2-320, looked up, technetium-99m label, Annexin V, a human protein (36 kD) of 319 amino acids, radiolabeled with technetium-99m as tracer) Annexin A5: AQVLRGTVTDFPGFDERADAETLRKAMKGLGTDEESILTLLTSRSNAQRQEISAAFKTLFGRDLLDDLKSELTGKFEKLIVALMKPSRLYDAYELKHALKGAGTNEKVLTEIIASRTPEELRAIKQVYEEEYGSSLEDDVVGDTSGYYQRMLVVLLQANRDPDAGIDEAQVEQDAQALFQAGELKWGTDEEKFITIFGTRSVSHLRKVFDKYMTISGFQIEETIDRETSGNLEQLLLAVVKSIRSIPAYLAETLYYAMKGAGTDDHTLIRVMVSRSEIDLFNIRKEFRKNFATSLYSMIKGDTSGDYKKALLLLCGEDD | 1701 | – | 15 | 8.4 | striking correlation between lesion sites and localization of annexin | 4.5
